Measurements published in patent publication US20160176932A1 (Janssen / Centocor, published 2016).

How the values were obtained:
[1] = molecular target: A2_F24 VI56IV (RSV A2) (UniProt P03420); assay: Octet endpoint assay, CR9501 on sensor, culture supernatant
[2] = molecular target: T1, B1_N67I, S215P loop (RSV B1, UniProt O36634 26-540); assay: Quantitative Octet, CR9501 on sensor, culture supernatant
T1 construct: Whole entry named; it begins with the signal peptide 1-26; also called PreFL N67I S215P, RSV B1, fibritin, Loop; F24-N67I + S215P: RSV B1, linker stabilized, fibritin
T1 chain: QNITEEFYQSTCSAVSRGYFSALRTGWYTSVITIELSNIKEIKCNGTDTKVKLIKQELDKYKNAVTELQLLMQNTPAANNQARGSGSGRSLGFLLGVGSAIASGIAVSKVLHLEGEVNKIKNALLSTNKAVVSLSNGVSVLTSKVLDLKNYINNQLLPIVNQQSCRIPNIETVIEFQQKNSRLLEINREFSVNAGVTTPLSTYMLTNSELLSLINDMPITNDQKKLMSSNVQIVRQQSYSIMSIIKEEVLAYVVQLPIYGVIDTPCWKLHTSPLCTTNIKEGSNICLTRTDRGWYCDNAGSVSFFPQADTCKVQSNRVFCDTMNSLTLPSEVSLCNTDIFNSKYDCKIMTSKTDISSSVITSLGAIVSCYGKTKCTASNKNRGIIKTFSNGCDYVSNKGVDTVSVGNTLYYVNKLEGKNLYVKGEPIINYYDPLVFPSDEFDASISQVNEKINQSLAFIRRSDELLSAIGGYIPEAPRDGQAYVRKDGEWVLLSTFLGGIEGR
Experimental: (§1) To measure concentration of the pre-fusion RSV F protein in cell culture supernatants, quantitative Octet-based method was used. […] Afterwards, the coated biosensors were blocked in mock cell culture supernatant. Quantitative experiment was performed as follows: temperature 30° C., shaking speed 1000 rpm, time of the assay 300 seconds. Concentration of the protein in the cell culture supernatant was calculated using standard curve. The standard curve was prepared for each coated antibody using the A2_F24 N67I+S215P (SEQ NO:21) protein, diluted in mock cell culture supernatant. The measurement was done on the day of supernatant harvest (day 1) and after storage of the supernatant at 4° C. for 5 days or longer. […] The data analysis was done using the FORTEBIO® Data Analysis 6.4 software (FORTEBIO®).

[3] = molecular target: T2, B1_N67I, S215P (RSV B1, UniProt O36634 27-109; O36634 137-540); assay: as above
T2 construct: also called PreF N67I S215P, RSV B1, fibritin
T2 chain 1: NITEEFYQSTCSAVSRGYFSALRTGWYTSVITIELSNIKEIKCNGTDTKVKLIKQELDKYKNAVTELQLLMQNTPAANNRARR
T2 chain 2: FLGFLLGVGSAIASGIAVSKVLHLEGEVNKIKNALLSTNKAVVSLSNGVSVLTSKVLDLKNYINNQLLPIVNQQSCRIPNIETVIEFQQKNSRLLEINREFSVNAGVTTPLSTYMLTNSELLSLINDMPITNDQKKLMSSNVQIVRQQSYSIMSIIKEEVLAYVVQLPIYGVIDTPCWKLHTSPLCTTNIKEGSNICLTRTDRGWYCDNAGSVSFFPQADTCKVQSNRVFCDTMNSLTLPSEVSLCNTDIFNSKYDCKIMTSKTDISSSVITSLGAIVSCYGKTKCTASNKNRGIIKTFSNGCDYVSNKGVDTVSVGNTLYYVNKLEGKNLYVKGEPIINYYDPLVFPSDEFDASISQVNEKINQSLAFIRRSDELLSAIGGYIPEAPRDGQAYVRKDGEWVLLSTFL
Experimental: as §1

CR9501 (antibody)
% of CR9501 binding after 5 days at 4 C relative to day 1 [1]: 54%

B1: CR9501 (antibody, V domains shown)
VH: QVQLVQSGPGLVKPSQTLALTCNVSGASINSDNYYWTWIRQRPGGGLEWIGHISYTGNTYYTPSLKSRLSMSLETSQSQFSLRLTSVTAADSAVYFCAACGAYVLISNCGWFDSWGQGTQVTVSS
VL: EIVMTQSPSSLSASIGDRVTITCQASQDISTYLNWYQQKPGQAPRLLIYGASNLETGVPSRFTGSGYGTDFSVTISSLQPEDIATYYCQQYQYLPYTFAPGTKVEIK
notes: Monoclonal antibody with the variable regions of 58C5; Biotinylated and immobilised on streptavidin sensors in the Octet assays; also called pre-fusion-specific Mab CR9501
% protein concentration (CR9501) after 5 days at 4 C relative to day of harvest [2]: 108% | % protein concentration (CR9501) after 5 days at 4 C relative to day of harvest [3]: 90.9%
